Measurements published in PMC2114114.

Biological target: Rat secretory component (rat (endogenous in rat liver)) (UniProt P15083)
Assay: co-IP

Sequence of UniProt P15083 (P15083 19-611): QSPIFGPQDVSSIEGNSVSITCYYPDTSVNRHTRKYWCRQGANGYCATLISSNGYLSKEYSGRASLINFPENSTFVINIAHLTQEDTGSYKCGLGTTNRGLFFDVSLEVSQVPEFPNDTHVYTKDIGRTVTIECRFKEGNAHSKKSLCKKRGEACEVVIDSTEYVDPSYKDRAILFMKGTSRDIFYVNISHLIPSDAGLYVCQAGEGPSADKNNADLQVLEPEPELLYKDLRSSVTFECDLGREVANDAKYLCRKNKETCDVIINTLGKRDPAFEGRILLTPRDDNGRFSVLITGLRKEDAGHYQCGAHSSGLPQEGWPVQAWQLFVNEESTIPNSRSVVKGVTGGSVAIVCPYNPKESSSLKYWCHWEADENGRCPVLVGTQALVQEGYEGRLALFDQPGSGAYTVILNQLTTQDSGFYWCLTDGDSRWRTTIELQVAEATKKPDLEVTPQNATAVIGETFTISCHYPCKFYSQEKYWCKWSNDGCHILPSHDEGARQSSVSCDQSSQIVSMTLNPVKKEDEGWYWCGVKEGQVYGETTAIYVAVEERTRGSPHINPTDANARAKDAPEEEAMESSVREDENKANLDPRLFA

With “Human monoclonal polymeric IgA (IgA1 myeloma protein) (from UniProt P01591 23-159) (antibody)” the percent bound to anti-rat SC immunoadsorbent was 92.4%.
